Substrate in this data set: O=C(CNc1ccccc1)[C@H](O)[C@H](O)COP(=O)(O)O
In words: discontinuous spectrophotometric assay of IGP formation (A278). The format is biochemical, Pseudomonas aeruginosa. The following applies: 50 mM Tris-HCl, 4 mM MgCl2, 0.5 mM TCEP, pH 7.0, 25 °C, substrate made enzymatically in situ from aniline and PRPP, 2.5 μM enzyme.

B1: PaIGPS (Pseudomonas aeruginosa PAO1) (protein)
chain: MSVPTVLQKILARKAEEVAERRARVNLAEVERLARSADAPRGFANALLERAKRKEPAVIAEIKKASPSKGVLREHFVPAEIARSYEAGGAACLSVLTDVDFFQGADAYLKEARAACALPVIRKDFMIDPYQIVEARAIGADCILLIVSALDDVLMAELAATAKSVGLDVLVEVHDGTELERALKTLDTPLVGINNRNLHTFEVSLETTLDLLPEIPRDRLVVTESGILNRADVELMEVSEVYAFLVGEAFMRADDPGLELKRLFFQERGAVVLGADPD
Broadly, the Km is the concentration of substrate that gives half-maximal velocity. One may read the kcat as the number of substrate molecules converted per active site and unit of time at saturation. Consider B1, for which the Km came to 180 ± 50 µM and the kcat was determined as 0.00442 ± 0.000389 s⁻¹.

The values are drawn from PMC7681013, “Structure and kinetics of indole-3-glycerol phosphate synthase from Pseudomonas aeruginosa: Decarboxylation is not essential for indole formation” (The Journal of Biological Chemistry, 2020).
